Assay results reported in the nanobody polyreactivity screen of Harvey et al. (2022).

assay: yeast display, Sf9 membrane polyspecificity reagent, FACS + sequencing; frameworks hold sequencing errors
Procedure, shortened: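 Galactose-induced (36–48 hours) yeast carrying a synthetic nanobody display library were exposed to 10% biotinylated, detergent-solubilized Sf9 membrane reagent at 4 °C for 1 hour. FACS followed streptavidin microbead enrichment, using low and high (top ~1%) gates for expression (anti-HA) and reagent binding (streptavidin). Colony PCR, MiSeq 2 × 250 sequencing and CDR-length filtering followed. Labels for polyreactivity reflect the gate of origin.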

Row | Sequence | polyreactivity (PSR sort gate)
1 | QVQLVESGGGLVQAGGSLRLSCAASGFIFETNAMGWYRQAPGKERELVAAISSRGGSTYYADSVKGRFTISRDNAKNTVYLQMNSLKPEDTAVYYCAAKLVVSYGQEYDYWGQGTQVTVSS | low polyreactivity
2 | QVQLVESGGGLVQAGGSLRLSCAASGFIFFTYAMGWYRQAPGKERELVADISSRGGSTYYADSVKGRFTISRDNAKNTVYLQMNSLKPEDTAVYYCARTRFWLRYRLFDYWGQGTQVTVSS | low polyreactivity
3 | QVQLVESGGGLVQAGGSLRLSCAASGFIFFTYAMGWYRQAPGKVRELVAAITSRGGRTYYADSVKGRFTISRDNAKNTVYLQMNILKPEDTAVYYCAVDPVRRYRYDYWGQGTQVTVSS | low polyreactivity
4 | QVQLVESGGGLVQAGGSLRLSCAASGFIFFYNAMGWYRQAPGKERELVAAISARGGSTYYADSVKGRFTISRDNAKNTVYLQMNSLKPEDTAVYYCNAVFPWPYVSRSIYWYYWGQGTQVTVSS | high polyreactivity
5 | QVQLVESGGGLVQAGGSLRLSCAASGFIFGANAMGWYRPAPGKERELVASINGSGGSTFYADSVKGRFTISRDNAKNTVYLQMNSLNPEDTAVYYCAAPCFCWFTTGGYYYWGQGTQVTVSS | low polyreactivity
6 | QVQLVESGGGLVQAGGSLRLSCAASGFIFGAYAMGWYRQAPGKERELVAALSSRGGNTYYADSVKGRFTISRDNAKNTVYLQMNSLKPEDTAVYYCNAVGYARYLYVPPPYDYWGQGTQVTVSS | high polyreactivity
7 | QVQLVESGGGLVQAGGSLRLSCAASGFIFGFNAMGWYRQAPGKERELVAVISARGGRTYYADSVKGRFTISRDNAKNTVYLQMNSLKPEDTAVYYCAADDFFRYFFTHWVGDDYWGQGTQVTVSS | low polyreactivity
8 | QVQLVESGGGLVQAGGSLRLSCAASGFIFGFYAMGWYRQAPGKERELVAAISGGGGRTNYADSVKGRFTISRDNAKNTVYLQMNSLKPEDTAVYYCARSPSYYSYTFGRQAYGNDYWGQGTQVTVSS | high polyreactivity
9 | QVQLVESGGGLVQAGGSLRLSCAASGFIFGHNTMGWYRQAPGKERELVARITSSGGGTNYADSVKGRFTISRDNAKNTVYLQMNSLKPEDTAVYYCAAELLYWGYYDYDYWGQGTQVTVSS | high polyreactivity
10 | QVQLVESGGGLVQAGGSLRLSCAASGFIFGHYAMGWYRPAPGKERELVAGINSSGGSTHYADSVKGRFTISRDNAKNTVYLQMNSLKPEDTAVYYCAADVYRYYAGSRYYYWGQGTQVTVSS | low polyreactivity
11 | QVQLVESGGGLVQAGGSLRLSCAASGFIFGINAMGWSRQAPGKERELVAAISRSGGRTYYADSVKGRCTISRDNAKNTVYLQMNSLKPEDTAVYYCAADKASYTNYDGDSWGQGTQVTVSS | high polyreactivity
12 | QVQLVESGGGLVQAGGSLRLSCAASGFIFGINAMGWYRQAPGKERELVATITSGGGTNYADSVKGRFTISRDNAKNTVYLQMNSLKPEDTAVYYCAAEEDYIYFYVSMDYWGQGTQVTVSS | low polyreactivity
13 | QVQLVESGGGLVQAGGSLRLSCAASGFIFGIYAMGWYRQAPGKEREFVAAMTGSAGSTYYADSVKGRFTISRDNAKNTVYLQMNSLKPEDTAVYYCAAVLRTHRYGGYNYWGQGTQVTVSS | low polyreactivity
14 | QVQLVESGGGLVQAGGSLRLSCAASGFIFGIYAMGWYRQAPGKERELVAAISWRGDSTYYADSVKGRFTISRDNAKNTVYLQMNSLKPEDTAVYYCAAVYYKLVGWYSYRYGYWGQGTQVTVSS | low polyreactivity
15 | QVQLVESGGGLVQAGGSLRLSCAASGFIFGLNAMGWYRPAPGKERELVAAIRSASSTNYADSVKGRFTISRDNAKNTVYLQMNSVKPEDTAVYYCAAEYVTYQQGFWGYDYWGQGTEVTVSS | low polyreactivity
16 | QVQLVESGGGLVQAGGSLRLSCAASGFIFGPNAMGWYIQAPGKERELVAAITWSSGRTYYADSVKGRFTISRDNAKNTVYLQMNSLKPEDTAVYYCAADFSRAVLRGNYWGQGTQVTVSS | high polyreactivity
17 | QVQLVESGGGLVQAGGSLRLSCAASGFIFGPYAMGWYRQAPGKERELVASISWSGGRTYYADSVKGRFTISRDNAKNTVYLQMNSLKPEDTAVYYCAADLPVIRGYRSNRFGYWGQGTQVTVSS | high polyreactivity
18 | QVQLVESGGGLVQAGGSLRLSCAASGFIFGQYAMGWSRQAPGKERELVAAISESGGRTYYADSVKGRFTISRDNAKNTVYLQMNSLKPEDTAVYYCAADKSKYRAFDYWGQGTQVTVSS | high polyreactivity
19 | QVQLVESGGGLVQAGGSLRLSCAASGFIFGQYAMGWSRQAPGKERELVAAISSVGTTNYADSVKGRFTISRDNAKNTVYLQMNSLKPEDTAVYYCNAPVFYYWDYSYFPYEVDYWGQGTQVTVSS | low polyreactivity
20 | QVQLVESGGGLVQAGGSLRLSCAASGFIFGRNAMGWYRQAPGKERELVAGISSRGGRTYYADSVKGRFTISRDNAKNTVYLQMNSLKPEDTAVYYCAAAGLTDYVRYDYWGQGTQVTVSS | high polyreactivity

Row | Sequence | polyreactivity (PSR sort gate)
21 | QVQLVESGGGLVQAGGSLRLSCAASGFIFGRYAMGWYRQAPGKERELVAAISKTGGRTYYADSVKGRFTISRDNAKNTVYLQMNSLKPEDTAVYYCAAVYKRGMDYWGQGTEVTVSS | high polyreactivity
22 | QVQLVESGGGLVQAGGSLRLSCAASGFIFGRYAMGWYRQAPGKERELVAAISRSGGSTHYADSVKGRFTISRDNAKNTVYLQMISLKPEDTAVYYCAAVWPFDRSRMDYWGQGTQVTVSS | high polyreactivity
23 | QVQLVESGGGLVQAGGSLRLSCAASGFIFGSNAMGWYRQAPGKERELVAAISRSGGSTYYADSVKGRFTISRDNAKNTVYLQMNSLKPEDTAVYYCNVDLWPFVYSWWSYDYWGQGTQVTVSS | high polyreactivity
24 | QVQLVESGGGLVQAGGSLRLSCAASGFIFGSNAMGWYRQAPGKERELVAAISRSGGSTYYADSVKGRFTISRDNAKNTVYLQMNSLKPEDTAVYYCNVVLWPFVYSWWSYDYWGQGTQVTVSS | high polyreactivity
25 | QVQLVESGGGLVQAGGSLRLSCAASGFIFGSYAMGWYRQAPGKERELVAAISYRGGTTYYADSVKGRFTISRDNAKNTVYLQMNSLKPEDTAVYYCAADSPENRYNYWGQGTQVTLSS | high polyreactivity
26 | QVQLVESGGGLVQAGGSLRLSCAASGFIFGTNAMGWYRQAPGKERELVAAITSRGGSTYYADSVKGRFTISRDNAKNTVYLQMNSLKPEDTAVYYCAADKPRSYYYWGQGTQVTVSS | high polyreactivity
27 | QVQLVESGGGLVQAGGSLRLSCAASGFIFGTYAMGWYRPAPGKERELVAAITSGGSTYYADSVKGRFTISRDNAKNTVYLQMNSLKPEDTAVYYCAKYHWRLSFSRYPYDYWGQGTQVTVSS | high polyreactivity
28 | QVQLVESGGGLVQAGGSLRLSCAASGFIFGTYAMGWYRQAPGKEREFVAAINWGGGRTYYADSVKGRFTISRDNAKNTVYLQMNSLKPEDTAVYYCNKRLIYYRGTYYSRRFDYWGQGTQVTVSS | high polyreactivity
29 | QVQLVESGGGLVQAGGSLRLSCAASGFIFGVNAMGWYRQAPGKERELVAAITSTGGRTYYADSVKGRFTISRDNAKNTVYLQMNSLKPEDTAVYYCNKRYRDQYGYDYWGQGTQVTVSS | high polyreactivity
30 | QVQLVESGGGLVQAGGSLRLSCAASGFIFGVYAMGWYRQAPGKERELVAAITGRAASTYYADSVKGRFTISRDNAKNTVYLQMNSLKPEDTAVYYCAARKRYRPGERYEYWGQGTQVTVSS | high polyreactivity
31 | QVQLVESGGGLVQAGGSLRLSCAASGFIFGVYAMGWYRQAPGKERELVARITYGGGSTYYADSVKGRFTISRDNAKNTVYLQMNSLKPEDTAVYYCAAASWSYPYYYWGQGTQVTVSS | high polyreactivity
32 | QVQLVESGGGLVQAGGSLRLSCAASGFIFGVYAMGWYRQAPGNERELVAAISGSGGTTYYADSVKGRFTISRDNAKNTVYLQMNSQKPEDTAVYYCNAAYRVRYIVNYDYWGQGTQVTVSS | low polyreactivity
33 | QVQLVESGGGLVQAGGSLRLSCAASGFIFGVYDMGWYRQAPGKERELVAAIDSVGSTYYADSVKGRFTISRDNAKNTVYFQMNSLKPEDTAGYYCNAARSRLYYVKYYYWGQGTQVTVSS | low polyreactivity
34 | QVQLVESGGGLVQAGGSLRLSCAASGFIFGWNAMGWYRQAPGKEREFVAAITSSGTSTYYADSVKGRFTISRDNAKNTVYLQMNSLKPEDTAVYYCAADVIFNWLAYSTEYDYWGQGTQVTVSS | low polyreactivity
35 | QVQLVESGGGLVQAGGSLRLSCAASGFIFGWNAMGWYRQAPGKERELVAGISRGGRTYYADSVKGRFTISRDNAKNTVYLQMNSLKPEDTAVYYCNKRLYSSSAVDAYGYWGQGTQVTVSS | high polyreactivity
36 | QVQLVESGGGLVQAGGSLRLSCAASGFIFGYNAMGWYRQAPGKERELVAAITRSGGRTYYADSVKGRFTISRDNAKNTVYLQMNSLKPEDTSVYYCAASRFATYPRWYDYWGQGTQVTVSS | low polyreactivity
37 | QVQLVESGGGLVQAGGSLRLSCAASGFIFGYNAMGWYRQAPGKERELVAAITWIGGTTYYADSVKGRFTISRDNAKNTVYLQMNSLKPEDTAVYYCARQRSYGRSSYSYGYDYWVQGTQVTVSS | high polyreactivity
38 | QVQLVESGGGLVQAGGSLRLSCAASGFIFGYYAMGCYTQAPGKERELVARSTSSGGSTYYADSVKGRFTISRDNAKTTVYLQMNSLKPEDTAVYYCAKSPRAPRYMPYGYWGQGSQVTVSS | high polyreactivity
39 | QVQLVESGGGLVQAGGSLRLSCAASGFIFGYYAMGWYRQAPGKEREFVAAITKRGGRTYYADSVKGRFTISRDNAKNTVYLQMNSLKPEDTAVYYCNKAIRQDRWVQEEDYWGQGTQVTVSS | high polyreactivity
40 | QVQLVESGGGLVQAGGSLRLSCAASGFIFGYYAMGWYRQAPGKERELVAAISGDAGRTYYADSVKGRFTISRDNAKNTVYLQMNSLKPEDTAVYYCADADTYKMDYWGQGTQVTVSS | low polyreactivity
